In US20240409634A1 (Janssen / Centocor, published 2024):

B1: scFv-VHH bispecific molecule JL3 x 5D3 (scFv (VL-L-VH)-L-VHH with C-tag) (bispecific antibody)
chain: QSVLTQPPSASGTPGQRVTISCSGSSSNIGSNIVNWYQQFPGTAPKLLLYSDNQRPSGVPDRFSGSKSGTSASLAISGLQSEDEADYYCAAWDDSLNGPVFGTGTKVTVLGGSEGKSSGSGSESKSTGGSQVQLQESGPGLVKPSETLSLTCSVSGGSIRNYYWSWIRQSAGKELEWFGHIFSTGHINYDSSLKSRVTMSVDTSNNQFSLKLRSVTAADTAVYYCARDNGAALFDFWGQGTLVTVSSGGGGSEVQLVESGGGLVQAGGSLRLSCAASGRPFSNYAMGWFRQAPGKEREFVTVISWSGGSTYYADSVKGRFTISRDNAKNTVYLQMNSLKPEDTAVYYCAAQFSGASTVVAGTALDYDYWGQGTRVTVSSAAAEPEA
B2: CD33 antibody JL2 combined with Vdelta2 antibody 6H4 (JL2x6H4), Fab (CD33) x VHH (Vδ2) Fc construct (bispecific antibody, human IgG1, kappa, L234A L235A)
heavy: EVQLVESGGGLVQPGGSLRLSCVVSGFTFSSYWMTWVRQAPGKGLEWVANIKQDGSERYYVDSVKGRFTISRDSAKNSLYLQMNSLRAEDTAVYYCAREVGYNWNQGGYFDYWGQGTLVTVSSASTKGPSVFPLAPSSKSTSGGTAALGCLVKDYFPEPVTVSWNSGALTSGVHTFPAVLQSSGLYSLSSVVTVPSSSLGTQTYICNVNHKPSNTKVDKKVEPKSCDKTHTCPPCPAPEAAGGPSVFLFPPKPKDTLMISRTPEVTCVVVSVSHEDPEVKFNWYVDGVEVHNAKTKPREEQYNSTYRVVSVLTVLHQDWLNGKEYKCKVSNKALPAPIEKTISKAKGQPREPQVYTLPPSREEMTKNQVSLSCAVKGFYPSDIAVEWESNGQPENNYKTTPPVLDSDGSFFLVSKLTVDKSRWQQGNVFSCSVMHEALHNRFTQKSLSLSPGK
light: DIVMTQSPLSLPVTPGEPASISCRSSQSLLHSDGYNYLDWYLQKSGQSPQLLIYLGSYRASGVPDRFSGSGSGTDFTLKISRVEAEDVGIYYCMQVLQTPWTFGQGTKVEIKRTVAAPSVFIFPPSDEQLKSGTASVVCLLNNFYPREAKVQWKVDNALQSGNSQESVTEQDSKDSTYSLSSTLTLSKADYEKHKVYACEVTHQGLSSPVTKSFNRGEC
chain: EVQLVESGGGLVQAGGSLRLSCAASGRPFSNYGMGWFRQAPGKKREFVAGISWSGGSTDYADSVKGRFTISRDNAKNTVYLQMNSLKPEDTAVYYCAAVFSGAETAYYPSDDYDYWGQGTQVTVSSEPKSSDKTHTCPPCPAPEAAGGPSVFLFPPKPKDTLMISRTPEVTCVVVSVSHEDPEVKFNWYVDGVEVHNAKTKPREEQYNSTYRVVSVLTVLHQDWLNGKEYKCKVSNKALPAPIEKTISKAKGQPREPQVYTLPPSREEMTKNQVSLWCLVKGFYPSDIAVEWESNGQPENNYKTTPPVLDSDGSFFLYSKLTVDKSRWQQGNVFSCSVMHEALHNHYTQKSLSLSPGK
B3: CD33 antibody JL2 combined with Vdelta2 antibody 5D3 (JL2x5D3), Fab (CD33) x VHH (Vδ2) Fc construct (bispecific antibody, human IgG1, kappa, L234A L235A)
heavy: EVQLVESGGGLVQPGGSLRLSCVVSGFTFSSYWMTWVRQAPGKGLEWVANIKQDGSERYYVDSVKGRFTISRDSAKNSLYLQMNSLRAEDTAVYYCAREVGYNWNQGGYFDYWGQGTLVTVSSASTKGPSVFPLAPSSKSTSGGTAALGCLVKDYFPEPVTVSWNSGALTSGVHTFPAVLQSSGLYSLSSVVTVPSSSLGTQTYICNVNHKPSNTKVDKKVEPKSCDKTHTCPPCPAPEAAGGPSVFLFPPKPKDTLMISRTPEVTCVVVSVSHEDPEVKFNWYVDGVEVHNAKTKPREEQYNSTYRVVSVLTVLHQDWLNGKEYKCKVSNKALPAPIEKTISKAKGQPREPQVYTLPPSREEMTKNQVSLSCAVKGFYPSDIAVEWESNGQPENNYKTTPPVLDSDGSFFLVSKLTVDKSRWQQGNVFSCSVMHEALHNRFTQKSLSLSPGK
light: DIVMTQSPLSLPVTPGEPASISCRSSQSLLHSDGYNYLDWYLQKSGQSPQLLIYLGSYRASGVPDRFSGSGSGTDFTLKISRVEAEDVGIYYCMQVLQTPWTFGQGTKVEIKRTVAAPSVFIFPPSDEQLKSGTASVVCLLNNFYPREAKVQWKVDNALQSGNSQESVTEQDSKDSTYSLSSTLTLSKADYEKHKVYACEVTHQGLSSPVTKSFNRGEC
chain: EVQLVESGGGLVQAGGSLRLSCAASGRPFSNYAMGWFRQAPGKEREFVTVISWSGGSTYYADSVKGRFTISRDNAKNTVYLQMNSLKPEDTAVYYCAAQFSGASTVVAGTALDYDYWGQGTRVTVSSEPKSSDKTHTCPPCPAPEAAGGPSVFLFPPKPKDTLMISRTPEVTCVVVSVSHEDPEVKFNWYVDGVEVHNAKTKPREEQYNSTYRVVSVLTVLHQDWLNGKEYKCKVSNKALPAPIEKTISKAKGQPREPQVYTLPPSREEMTKNQVSLWCLVKGFYPSDIAVEWESNGQPENNYKTTPPVLDSDGSFFLYSKLTVDKSRWQQGNVFSCSVMHEALHNHYTQKSLSLSPGK
B4: scFv-VHH bispecific molecule JL1 x 5D3 (scFv (VL-L-VH)-L-VHH with C-tag) (bispecific antibody)
chain: DIVMTQSPLSLPVTPGEPASISCKSSQSLLFSNGYKFLDWYLQRPGQSPQLLIYLGSYRASGVPDRFSGSGSGTDFTLKISRVEAEDVGLYYCMQALQTPPTFGGGTKVEIKGGSEGKSSGSGSESKSTGGSEVQLVESGGGLVQPGGSLKVSCEASGFTFSVSAIHWVRQASGKGLEWIGRIRSKGNSYATAYAASVKGRFTISRDDSKNTAYLQMDSLKTEDTAVYYCTRHNDKWNYYGLDVWGQGTTVTVSSGGGGSEVQLVESGGGLVQAGGSLRLSCAASGRPFSNYAMGWFRQAPGKEREFVTVISWSGGSTYYADSVKGRFTISRDNAKNTVYLQMNSLKPEDTAVYYCAAQFSGASTVVAGTALDYDYWGQGTRVTVSSAAAEPEA
B5: scFv-VHH bispecific molecule JL4 x 5D3 (scFv (VL-L-VH)-L-VHH with C-tag) (bispecific antibody)
chain: DVVMTQSPLSLPVTLGQPASISCRSSQSLVYSDGNTYLNWFQQRPGQSPRRLIYKVSTRDSGVPDRFSGSGSGTDFTLKISRVEAEDVAVYYCLQGTHWPWTFGQGTKVEIKGGSEGKSSGSGSESKSTGGSQVQLVESGGGLVQPGGSLRLSCAASGITFSNYWMSWVRQAPGKGLEWVASIKRDGSDKYYVDSVKGRFTISRDNAKNSLSLQMHSLRAEDTAVYYCAKGEFDYWGQGTLVTVSSGGGGSEVQLVESGGGLVQAGGSLRLSCAASGRPFSNYAMGWFRQAPGKEREFVTVISWSGGSTYYADSVKGRFTISRDNAKNTVYLQMNSLKPEDTAVYYCAAQFSGASTVVAGTALDYDYWGQGTRVTVSSAAAEPEA
B6: scFv-VHH bispecific molecule JL2 x 5D3 (scFv (VL-L-VH)-L-VHH with C-tag) (bispecific antibody)
chain: DIVMTQSPLSLPVTPGEPASISCRSSQSLLHSDGYNYLDWYLQKSGQSPQLLIYLGSYRASGVPDRFSGSGSGTDFTLKISRVEAEDVGIYYCMQVLQTPWTFGQGTKVEIKGGSEGKSSGSGSESKSTGGSEVQLVESGGGLVQPGGSLRLSCVVSGFTFSSYWMTWVRQAPGKGLEWVANIKQDGSERYYVDSVKGRFTISRDSAKNSLYLQMNSLRAEDTAVYYCAREVGYNWNQGGYFDYWGQGTLVTVSSGGGGSEVQLVESGGGLVQAGGSLRLSCAASGRPFSNYAMGWFRQAPGKEREFVTVISWSGGSTYYADSVKGRFTISRDNAKNTVYLQMNSLKPEDTAVYYCAAQFSGASTVVAGTALDYDYWGQGTRVTVSSAAAEPEA
B7: CD33 antibody JL3 combined with Vdelta2 antibody 5D3 (JL3x5D3), Fab (CD33) x VHH (Vδ2) Fc construct (bispecific antibody, human IgG1, lambda, L234A L235A)
heavy: QVQLQESGPGLVKPSETLSLTCSVSGGSIRNYYWSWIRQSAGKELEWFGHIFSTGHINYDSSLKSRVTMSVDTSNNQFSLKLRSVTAADTAVYYCARDNGAALFDFWGQGTLVTVSSASTKGPSVFPLAPSSKSTSGGTAALGCLVKDYFPEPVTVSWNSGALTSGVHTFPAVLQSSGLYSLSSVVTVPSSSLGTQTYICNVNHKPSNTKVDKKVEPKSCDKTHTCPPCPAPEAAGGPSVFLFPPKPKDTLMISRTPEVTCVVVSVSHEDPEVKFNWYVDGVEVHNAKTKPREEQYNSTYRVVSVLTVLHQDWLNGKEYKCKVSNKALPAPIEKTISKAKGQPREPQVYTLPPSREEMTKNQVSLSCAVKGFYPSDIAVEWESNGQPENNYKTTPPVLDSDGSFFLVSKLTVDKSRWQQGNVFSCSVMHEALHNRFTQKSLSLSPGK
light: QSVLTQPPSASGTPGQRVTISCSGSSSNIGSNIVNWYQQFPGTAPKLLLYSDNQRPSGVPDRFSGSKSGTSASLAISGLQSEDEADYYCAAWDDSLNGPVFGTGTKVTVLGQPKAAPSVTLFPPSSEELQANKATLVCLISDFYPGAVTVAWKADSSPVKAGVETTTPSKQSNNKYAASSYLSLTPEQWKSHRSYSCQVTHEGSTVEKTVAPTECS
chain: EVQLVESGGGLVQAGGSLRLSCAASGRPFSNYAMGWFRQAPGKEREFVTVISWSGGSTYYADSVKGRFTISRDNAKNTVYLQMNSLKPEDTAVYYCAAQFSGASTVVAGTALDYDYWGQGTRVTVSSEPKSSDKTHTCPPCPAPEAAGGPSVFLFPPKPKDTLMISRTPEVTCVVVSVSHEDPEVKFNWYVDGVEVHNAKTKPREEQYNSTYRVVSVLTVLHQDWLNGKEYKCKVSNKALPAPIEKTISKAKGQPREPQVYTLPPSREEMTKNQVSLWCLVKGFYPSDIAVEWESNGQPENNYKTTPPVLDSDGSFFLYSKLTVDKSRWQQGNVFSCSVMHEALHNHYTQKSLSLSPGK
B8: scFv-VHH bispecific molecule JL5 x 5D3 (scFv (VL-L-VH)-L-VHH with C-tag) (bispecific antibody)
chain: QSVLTQPPSASGTPGQRVTISCSGSSSNIGSNIVNWYQQFPGTAPKLLIYSNNQRPSGVPDRVSGSKSGTSASLAISGLQSEDEADYYCAAWDDSLNGPVFGPGTKVTVLGGSEGKSSGSGSESKSTGGSQVQLQESGPGLVKPSETLSLTCSVSGASIRNYYWSWIRQTAGKGLEWLGHIYSTGNIHYNPSLKSRVTMSVDTSNNQFSLKLRSVTAADTAVYYCARDNGAALFDYWGQGTLVTVSSGGGGSEVQLVESGGGLVQAGGSLRLSCAASGRPFSNYAMGWFRQAPGKEREFVTVISWSGGSTYYADSVKGRFTISRDNAKNTVYLQMNSLKPEDTAVYYCAAQFSGASTVVAGTALDYDYWGQGTRVTVSSAAAEPEA
B9: scFv-VHH bispecific molecule JL6 x 6H4 (scFv (VL-L-VH)-L-VHH with C-tag) (bispecific antibody)
chain: QSVLTQPPSASGTPGQRVTISCSGSSSNIGSNPVNWYQQLPGTAPKLLIYSNNQRPSGVPDRFSGSKSGTSASLAISGLQSEDEADYFCAAWDDSLNGPVFGGGTKLTVLGGSEGKSSGSGSESKSTGGSQVQLQESGPGLVKPSETLSLTCTVSGGSISSYYWGWIRQPPGKGLEWIGYIYYSGSTNYNPSLKSRVTISVDTSKNQFSLKLSSVTAADTAVYYCARMWEILGFDPWGQGTLVTVSSGGGGSEVQLVESGGGLVQAGGSLRLSCAASGRPFSNYGMGWFRQAPGKKREFVAGISWSGGSTDYADSVKGRFTISRDNAKNTVYLQMNSLKPEDTAVYYCAAVFSGAETAYYPSDDYDYWGQGTQVTVSSAAAEPEA
B10: scFv-VHH bispecific molecule JL6 x 5D3 (scFv (VL-L-VH)-L-VHH with C-tag) (bispecific antibody)
chain: QSVLTQPPSASGTPGQRVTISCSGSSSNIGSNPVNWYQQLPGTAPKLLIYSNNQRPSGVPDRFSGSKSGTSASLAISGLQSEDEADYFCAAWDDSLNGPVFGGGTKLTVLGGSEGKSSGSGSESKSTGGSQVQLQESGPGLVKPSETLSLTCTVSGGSISSYYWGWIRQPPGKGLEWIGYIYYSGSTNYNPSLKSRVTISVDTSKNQFSLKLSSVTAADTAVYYCARMWEILGFDPWGQGTLVTVSSGGGGSEVQLVESGGGLVQAGGSLRLSCAASGRPFSNYAMGWFRQAPGKEREFVTVISWSGGSTYYADSVKGRFTISRDNAKNTVYLQMNSLKPEDTAVYYCAAQFSGASTVVAGTALDYDYWGQGTRVTVSSAAAEPEA

Columns and labels:
[1] = biological target: T1, human CD33 on CD33-expressing THP-1 cells (human, UniProt P20138 18-364); assay: cell-based or functional assay
T1 sequence (P20138 18-364): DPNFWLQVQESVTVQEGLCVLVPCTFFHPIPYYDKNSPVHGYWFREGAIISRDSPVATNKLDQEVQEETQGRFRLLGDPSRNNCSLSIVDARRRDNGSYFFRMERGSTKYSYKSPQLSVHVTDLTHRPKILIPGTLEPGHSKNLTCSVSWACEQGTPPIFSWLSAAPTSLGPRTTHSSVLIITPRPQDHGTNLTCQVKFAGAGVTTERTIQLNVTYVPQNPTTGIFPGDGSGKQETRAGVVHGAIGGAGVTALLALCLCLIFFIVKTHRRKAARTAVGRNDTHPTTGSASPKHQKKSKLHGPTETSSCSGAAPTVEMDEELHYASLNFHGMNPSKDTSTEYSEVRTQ

[2] = biological target: T1, human CD33 on CD33-expressing THP-1 …; assay: cell-based or functional assay; remark: listed apart in the source

Binder	Cytotox EC50 (nM) Donor 104 [1] [nM]	Cytotox EC50 (nM) Donor 156 [1] [nM]	Cytotox EC50 (pM) E:T 1:1 - 22 hrs [2] [pM]	Cytotox EC50 (pM) E:T 1:20 - 94 hrs [2] [pM]
B1	~0.0013	~0.0008		
B2			4	20
B3			28	~380
B4	~0.61	~0.43		
B5	~0.027	0.023		
B6	0.0027	~0.0019		
B7			15	77
B8	~0.00093	~0.0007		
B9	0.0012	0.0013		
B10	0.0044	0.0029		
